Assay results as given in publication PMC10293821.

What was measured:
[1] = biological target: apo recombinant HRPII mutant with a 4 amino acid C terminus truncation (P. falciparum); test: AUC
[2] = biological target: histidine-rich protein II (HRPII) purified from conditioned media of cultured P. falciparum (P. falciparum strain 3D7); test: AUC

Substance	stoichiometry N [1]	stoichiometry N [2]
apo recombinant HRPII mutant with a 4 amino acid C terminus truncation (domain or fragment)	3	
histidine-rich protein II (HRPII) purified from conditioned media of cultured P. falciparum (natural protein)		14
